The values below come from PMC8646042.

This assay addresses T1, endogenous IRF3 (human (endogenous in 293T)), Q14653.
T1 chain: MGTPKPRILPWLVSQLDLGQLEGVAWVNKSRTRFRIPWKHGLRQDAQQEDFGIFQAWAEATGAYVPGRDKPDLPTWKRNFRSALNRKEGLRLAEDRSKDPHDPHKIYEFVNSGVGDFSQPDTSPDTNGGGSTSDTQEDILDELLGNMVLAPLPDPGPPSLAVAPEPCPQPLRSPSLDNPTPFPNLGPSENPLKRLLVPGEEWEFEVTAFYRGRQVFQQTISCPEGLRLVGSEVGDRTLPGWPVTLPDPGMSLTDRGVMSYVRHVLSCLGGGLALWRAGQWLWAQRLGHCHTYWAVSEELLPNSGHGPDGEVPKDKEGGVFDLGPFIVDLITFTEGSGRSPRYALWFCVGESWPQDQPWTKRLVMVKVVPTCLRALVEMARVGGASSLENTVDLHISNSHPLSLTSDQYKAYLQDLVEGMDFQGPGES
As to the kind of experiment: native gel or EMSA; Native PAGE of lysates of 293T or MCF7 cells and western blot with anti-IRF3; SeV infection for 12 h or MAVS transfection; N4BP3 overexpressed, knocked down or knocked out. The following applies: remark: other sources report otherwise.

B1: endogenous IRF3, Q14653 1-427 (natural protein)
chain: T1 chain
By stoichiometry N is commonly meant the number of molecules, sites or subunits per partner or assembly. In turn, B1 showed a stoichiometry N of 2.
